Assay results published in US9649378B2, “Cancer methods” (priority 2010, dated 2017).
Entries after “also recorded” stand apart in the source; their conditions may differ.

Experiments:
[1] = test system: normal ovarian surface epithelial cells (OSE-C2); experiment: in vitro growth assay (MTT-based) with rOPCML; type: cell-based; settings: OSE-C2, OPCML expressing
Protocol: (§1) (A) SKOV-3 cells were subjected to a 48 h in vitro growth assay with varying concentrations of OPCML administration. (B) A 96 h in vitro SKOV-3 growth assay with 2 μM rOPCML administered to growth media. Time points were collected every 24 h and normalised to control cells treated with vehicle only. Cell viability was quantified using MTT and measured at 570 nm. (C) Upper panel—OSE-C2 and SKOV-3 cells were subjected to a 48 h in vitro growth assay with varying OPCML concentrations (0.5, 1, 2, 5 and 10 μM); lower panel—normal ovarian surface epithelial cells (OSE-C2) and a panel of ovarian (SKOV-3, IGROV, OVISE, OVCAR-5, A2780, PEA1 and PEA2) and […] breast cancer cells were subjected to an in vitro growth assay with 10 μm OPCML. Time points were collected at 24 h and 48 h and cell growth was monitored to vehicle only controls. Cell viability was quantified in all experiments using an MTT-based assay and measured at 570 nm.
(B) a 96 h in vitro SKOV-3 growth assay with 2 μM rOPCML administered to growth media. Time points were collected every 24 h and normalised to control cells treated with vehicle only. (C) Normal ovarian surface epithelial cells (OSE-C2) and a panel of ovarian (SKOV-3, IGROV, OVISE, OVCAR-5, A2780, PEA1 and PEA2), […] breast cancer cells and non-adherant (H69, H501 small-cell) and adherent (A549 carcinoma, HCC95 non-SSLC squamous) lung cancer cells were subjected to an in vitro growth assay with 10 μM of rOPCML. Time points were collected at 24 and 48 h and cell growth was normalised to vehicle only controls. Cell viability was quantified in all experiments using an MU-based assay and measured at 570 nm. Caspase cleavage-based apoptosis assays using (D) A2780 and (E) SKOV-3 were undertaken with administration of rOPCML (2, 5 and 10 μM) over 24 h. Caspase cleavage was quantified using the GaspaseGlo kit and normalised to cell viability. […]

[2] = test system: ovarian cancer cell lines (SKOV-3, IGROV, OVISE, OVCAR-5, A2780, PEA1 and PEA2); experiment: in vitro growth assay (MTT-based) with rOPCML, ovarian panel; type: cell-based; settings: for growth of ovarian and breast cancer cell lines: 10 μM, 24 h and 48 h, versus vehicle only; for ovarian cancer cell lines growth-inhibited / killed, of lines tested: in vitro
Protocol: (§2) We have tested 0.5, 1, 2, 5 and 10 μM of recombinant […] human OPCML in vitro, and there is a linear dose response which has not yet peaked. […] The physician skilled in the art will be able to identify suitable doses based upon this information and their skill in the art.
as §1
(§3) (B) a 96 h in vitro SKOV-3 growth assay with 2 μM rOPCML administered to growth media. Time points were collected every 24 h and normalised to control cells treated with vehicle only. (C) Normal ovarian surface epithelial cells (OSE-C2) and a panel of ovarian (SKOV-3, IGROV, OVISE, OVCAR-5, A2780, PEA1 and PEA2), HER2-positive (MDA-231) and negative (BT-474) breast cancer cells and non-adherant (H69, H501 small-cell) and adherent (A549 carcinoma, HCC95 non-SSLC squamous) lung cancer cells were subjected to an in vitro growth assay with 10 μM of rOPCML. Time points were collected at 24 and 48 h and cell growth was normalised to vehicle only controls. Cell viability was quantified in all experiments using an MU-based assay and measured at 570 nm. Caspase cleavage-based apoptosis assays using (D) A2780 and (E) SKOV-3 were undertaken with administration of rOPCML (2, 5 and 10 μM) over 24 h. Caspase cleavage was quantified using the GaspaseGlo kit and normalised to cell viability.

[3] = test system: receptor tyrosine kinase signaling in SKOV-3 and A2780 cells; experiment: Western blot / IFM of RTKs and downstream signalling after exogenous OPCML; type: cell-based; settings: for RTK levels and RTK signalling: 2 μM for 48 h, Western blot
Protocol: FIG. 9: Cellular uptake of recombinant OPCML. SKOV-3 cells were incubated with vehicle alone or vehicle including 2 μM OPCML for 24 h. Cells were then washed 3× with PBS and fixed with 4% PFA. Cells were then prepared for IFM using rabbit α-HER2 mAb and mouse α-OPCML mAb. Goat α-rabbit alexa-488 and α-mouse alexa-555 secondary antibodies were used. Slides were imaged using a Leica SP5 confocal microscope.
(§4) (A) Western Blot analysis of pHER, tHER2, tEGFR, pEGFR, tFGFR, pFGFR proteins from SKOV-3 cells untreated, treated with vehicle only or OPCML (2 μM) for 48 h. (B) Western blot analysis of pAKT, tAKT, pERK, tERK proteins from SKOV-3 cells untreated, treated with vehicle only or OPCML (2 μM) for 48 h. Protein loading was standardised by BCA-assay and β-tubulin was used as a loading control.
as §4, with “SKOV-3 and A2780” for “SKOV-3”, “cells” for “cells untreated,”, “tERK,” for “tERK”

[4] = test system: SKOV-3 cells; experiment: in vitro growth assay (MTT-based) with rOPCML added to growth media; settings: 0.5-10 μM for 48 h or 2 μM for 96 h
Protocol: as §1
(B) a 96 h in vitro SKOV-3 growth assay with 2 μM rOPCML administered to growth media. Time points were collected every 24 h and normalised to control cells treated with vehicle only. […] Cell viability was quantified in all experiments using an MU-based assay and measured at 570 nm. […] Caspase cleavage was quantified using the GaspaseGlo kit and normalised to cell viability. […]

[5] = test system: lung cancer cells (H69, H501, A549, HCC95); experiment: in vitro growth assay (MTT-based) with rOPCML, lung lines; type: cell-based; settings: 10 μM rOPCML
Protocol: as §3

[6] = test system: A2780 cancer cells injected intraperitoneally; experiment: intraperitoneal tumour growth assay, r-OPCML versus BSA; type: in vivo, nude mouse; settings: A2780 model; for IP tumour growth / tumour weight: 1 ml (10 μM) IP twice weekly, 3 weeks; for IP tumour growth / tumour weight / ascites formation / volume / number of IP peritoneal deposits / peritoneal dissemination: versus BSA
Protocol: (§5) Comparison of r-OPCML and control protein (bovine serum albumen) treated A2780 and SKOV-3 cell lines. (A) Gross anatomical observation of the animals (B) Intraperitoneal tumour growth assay. Tumours were removed, weighed and photographed after 3 weeks of twice-weekly 1 mL intraperitoneal injection of 10 μM r-OPCML or BSA. Representative A2780 and SKOV-3 tumour xenografts from 4 animals are presented. A scale bar is shown. (C) mean tumour weight, (D) number of deposits and (E) volume of ascites removed per mouse from the intraperitoneal assay presented in B. Comparison is shown between tumours and ascites collected from BSA- (−) and r-OPCML-treated (+) mice. (F) Western blot analysis of recovered tumours from control (BSA) and r-OPCML treated animals recapitulates in-vitro findings.
(§6) In view of these in-vitro findings, we proceeded to determine whether r-OPCML protein had potential and relevance as an in-vivo tumour suppressor therapy. Mice with either SKOV-3 or A2780 cancer cells injected intraperitoneally (IP), after tumour establishment, received twice-weekly IP injections of either 1 ml (10 μM) bovine serum albumin (BSA) or 1 ml (10 μM) r-OPCML.

[7] = test system: SKOV-3 cancer cells injected intraperitoneally; experiment: as above; type: in vivo, nude mouse; settings: for IP tumour growth / tumour weight: 1 ml (10 μM) IP twice weekly, 3 weeks
Protocol: as §5, §6

[8] = test system: SKOV-3 and A2780 ovarian cancer cells; experiment: Annexin V FACS and caspase-glo apoptosis assays with r-OPCML; type: cell-based
Protocol: as §3
Purified recombinant human OPCML domain 1-3 protein (r-OPCML) (FIG. 8) was produced from the bacterial expression vector (pHis-Trx) subcloned with domains 1-3 of OPCML, excluding the signal peptide and GPI anchor sequences (FIG. 8A).

[9] = test system: HER2-positive (MDA-231) and negative (BT-474) breast cancer cells; experiment: in vitro growth assay (MTT-based) with rOPCML, breast lines; type: cell-based; settings: for breast cancer cell lines growth-inhibited / killed, of lines tested: both HER2 positive and HER2 negative
Protocol: as §2, §1
(B) a 96 h in vitro SKOV-3 growth assay with 2 μM rOPCML administered to growth media. Time points were collected every 24 h and normalised to control cells treated with vehicle only. (C) Normal ovarian surface epithelial cells (OSE-C2) and a panel of ovarian (SKOV-3, IGROV, OVISE, OVCAR-5, A2780, PEA1 and PEA2), […] breast cancer cells and non-adherant (H69, H501 small-cell) and adherent (A549 carcinoma, HCC95 non-SSLC squamous) lung cancer cells were subjected to an in vitro growth assay with 10 μM of rOPCML. Time points were collected at 24 and 48 h and cell growth was normalised to vehicle only controls. Cell viability was quantified in all experiments using an MU-based assay and measured at 570 nm. […] Caspase cleavage was quantified using the GaspaseGlo kit and normalised to cell viability.

[10] = 0.5, 1, 2, 5 and 10 μM tested in vitro, ovarian and breast cancer cell lines
[11] = listed as recombinant full length human OPCML
[12] = SKOV-3 model, versus BSA, listed as rOPCML

B1: r-OPCML: Purified recombinant human OPCML domain 1-3 protein from E. coli, excluding signal peptide and GPI anchor sequences; SEQ ID No 5 (protein, listed as Homo sapiens)
chain: PKAMDNVTVRQGESATLRCTIDDRVTRVAWLNRSTILYAGNDKWSIDPRVIILVNTPTQYSIMIQNVDVYDEGPYTCSVQTDNHPKTSRVHLIVQVPPQIMNISSDITVNEGSSVTLLCLAIGRPEPTVTWRHLSVKEGQGFVSEDEYLEISDIKRDQSGEYECSALNDVAAPDVRKVKITVNYPPYISKAKNTGVSVGQKGILSCEASAVPMAEFQWFKEETRLATGLDGMRIENKGRMSTLTFFNVSEKDYGNYTCVATNKLGNTNASIT
- effect on normal ovarian surface epithelial cells [1]: without affecting normal ovarian surface epithelial cells
- effect on normal ovarian surface epithelial cells ([1]; listed as OPCML): sparing normal ovarian surface epithelial cells
- effect on normal ovarian surface epithelial cells ([1]; listed as rOPCML): no effect
- growth of ovarian and breast cancer cell lines ([2]; listed as Exogenous OPCML): inhibits growth
- growth of ovarian and breast cancer cell lines ([2]; listed as OPCML): inhibits growth
- growth of ovarian and breast cancer cell lines ([2]; listed as rOPCML): specifically inhibits
- concentration from which inhibition of cell growth is seen [2, 10]: ≥ 2 μm
- concentration giving frank cell death [2, 10]: 5 to 10 µM
- response of PEA2 cell line ([2]; PEA2): resistance
- ovarian cancer cell lines growth-inhibited / killed, of lines tested [2]: 6 of 7
- ovarian cancer cell lines growth-inhibited / killed, of lines tested ([2]; listed as rOPCML): 6/7
- ovarian cancer cell lines growth-inhibited / killed, of lines tested [2, 11]: 6/7
- RTK levels and RTK signalling [3]: potently downregulated
- RTK levels and RTK signalling ([3]; listed as Exogenous OPCML): inhibits RTK signaling
- RTK levels and RTK signalling ([3]; listed as exogenous OPCML): inhibits receptor tyrosine kinase signaling
- RTK levels and RTK signalling ([3]; listed as rOPCML): abrogates total RTK levels and inhibits RTK signalling
- ERK protein levels ([3]; SKOV-3, 2 μM OPCML 48 h): downregulates
- HER2 protein level ([3]; SKOV-3, 2 μM OPCML, listed as exogenous OPCML): downregulation of HER2; also recorded: downregulates
- pERK and pAKT ([3]; SKOV-3 and A2780, immunoblotting): abrogating pERK and pAKT
- AKT S473 phosphorylation ([3]; administration to cancer cells in vitro): inhibits phospho S473 AKT; also recorded: inhibits AKT s473 phosphorylation
- SKOV-3 cell growth in vitro [4]: specific, dose-dependent inhibition of cell growth
- SKOV-3 cell growth in vitro ([4]; listed as exogenous OPCML): inhibits SKOV-3 cell growth
- lung cancer cell lines with profoundly inhibited cell growth, of lines tested [5]: 5 of 5
- IP tumour growth / tumour weight [6]: significantly and profoundly suppressed
- IP tumour growth / tumour weight ([6]; listed as Recombinant OPCML): reduces tumour growth
- IP tumour growth / tumour weight ([6]; listed as rOPCML): profound inhibition
- condition of animals at 3 weeks ([6]; BSA controls deteriorating): remained well
- ascites formation / volume [6]: significantly and profoundly suppressed
- number of IP peritoneal deposits / peritoneal dissemination [6]: profoundly inhibited
- ascites formation / volume ([6]; listed as rOPCML): profound inhibition
- number of IP peritoneal deposits / peritoneal dissemination ([6]; listed as rOPCML): profound inhibition
- RTKs in recovered IP tumour (Western blotting) ([7]; SKOV3 IP tumour, r-OPCML versus BSA treated): same spectrum of RTKs inhibited
- peritoneal dissemination ([7]; SKOV3 model, versus BSA): profound inhibition
- IP tumour growth / tumour weight ([7]; SKOV-3 model, versus BSA): significantly and profoundly suppressed
- IP tumour growth / tumour weight ([7]; SKOV-3 model, versus BSA, listed as Recombinant OPCML): reduces tumour growth
- IP tumour growth / tumour weight [7, 12]: profound inhibition
- condition of animals at 3 weeks ([7]; SKOV-3 model, BSA controls deteriorating): remained well
- ascites formation / volume ([7]; SKOV-3 model, versus BSA): significantly and profoundly suppressed
- ascites formation / volume [7, 12]: profound inhibition
- apoptosis in caspase-glo assay ([8]; 2, 5 and 10 μM over 24 h): induces apoptosis in both these cell lines in a dose dependent fashion
- early apoptosis, time post exposure ([8]; Annexin V FACS apoptosis assay, depending on cell line): 2 to 6 h
- growth of HER2+ and HER2− breast cancer cell line ([9]; 10 μM, 24 h and 48 h): profoundly inhibited
- breast cancer cell lines growth-inhibited / killed, of lines tested [9]: 2 of 2
- breast cancer cell lines growth-inhibited / killed, of lines tested [9, 11]: 2/2
